Test results published in paper PMC5431903, “Genomic RNA folding mediates assembly of human parechovirus” (Nature Communications, 2017).

Molecular target: the molecule itself
Assay: not stated; purified HPeV1 virions heated to 56 °C for 30 min, then 4 °C for 10 days (1x selection buffer: 10 mM Tris-HCl pH 7.7, 150 mM NaCl, 1 mM MgCl2); whole capsids removed by centrifugation; how the pentamers were shown is in Supplementary Fig. 1

B1: HPeV1 (Harris strain) capsid protein protomer of VP0, VP1 and VP3 (complex)
chain 1: METIKSIADMATGVVSSVDSTINAVNEKVESVGNEIGGNLLTKVADDASNILGPNCFATTAEPENKNVVQATTTVNTTNLTQHPSAPTMPFSPDFSNVDNFHSMAYDITTGDKNPSKLVRLETHEWTPSWARGYQITHVELPKVFWDHQDKPAYGQSRYFAAVRCGFHFQVQVNVNQGTAGSALVVYEPKPVVTYDSKLEFGAFTNLPHVLMNLAETTQADLCIPYVADTNYVKTDSSDLGQLKVYVWTPLSIPTGSANQVDVTILGSLLQLDFQNPRVFAQDVNIYDN
chain 2: NSWGSQMDLTDPLCIEDDTENCKQTMSPNELGLTSAQDDGPLGQEKPNYFLNFRSMNVDIFTVSHTKVDNLFGRAWFFMEHTFTNEGQWRVPLEFPKQGHGSLSLLFAYFTGELNIHVLFLSERGFLRVAHTYDTSNDRVNFLSSNGVITVPAGEQMTLSAPYYSNKPLRTVRDNNSLGYLMCKPFLTGTSTGKIEVYLSLRCPNFFFPLPAPKVTSSRALRGDMANLTNQ
chain 3: APNGKKKNWKKIMTMSTKYKWTRTKIDIAEGPGSMNMANVLCTTGAQSVALVGERAFYDPRTAGSKSRFDDLVKIAQLFSVMADSTTPSENHGVDAKGYFKWSATTAPQSIVHRNIVYLRLFPNLNVFVNSYSYFRGSLVLRLSVYASTFNRGRLRMGFFPNATTDSTSTLDNAIYTICDIGSDNSFEITIPYSFSTWMRKTNGHPIGLFQIEVLNRLTYNSSSPSEVYCIVQGKMGQDARFFCPTGSVVTFQ
notes: capsid protein VP0 of human parechovirus 1, Harris strain; cut product of the viral polyprotein, not cleaved into VP2 and VP4; capsid protein VP1 of human parechovirus 1, Harris strain; cut product of the viral polyprotein; capsid protein VP3 of human parechovirus 1, Harris strain; One protomer holds one copy each of VP0, VP1 and VP3; five protomers form the pentameric capsomer, and the capsid is …
stoichiometry N: 5
